In patent US20180057591A1 (Eli Lilly, published 2018):

Columns and labels:
[1] = target: T1, human Tim-3-Fc (R&D Systems) (human, UniProt Q8TDQ0 22-130, biotinylated in the phosphatidylserine assay; ruthenylated (sulfo-tag NHS-ester) in the galectin-9 assay); test: flow cytometry, blocking of biotinylated hTIM-3-Fc binding to phosphatidylserine on camptothecin-treated DO11.10 cells; blocking of hTIM-3-Fc Biotin binding to phosphatidylserine on camptothecin-treated DO11.10 cells
T1 construct: Bought from R&D Systems; also called hTIM-3-Fc; hTIM-3-Fc Biotin; not shown: Fc part of the bought fusion protein

[2] = target: T1, human Tim-3-Fc (R&D Systems); test: MSD blocking assay, ruthenylated hTim-3-Fc binding to plate-bound galectin-9-biotin
[3] = target: T2, human Tim-3 on cells (Tim-3 DO11.10 cells, a human Tim-3 expressing DO11.10 cell line) (human, UniProt Q8TDQ0 22-301); test: cell-based or functional assay
[4] = target: T2, human Tim-3 on cells (Tim-3 DO11.10 …); test: flow cytometry, A488-labelled antibody on Tim-3 DO11.10 cells
[5] = target: T1, human Tim-3-Fc (R&D Systems); test: ELISA, plate coated with human Tim-3-Fc
[6] = target: T3, human Tim-3-IgV-Fc single arm antigen (SAG) (human, UniProt Q8TDQ0 22-130); test: SPR, Biacore T100, antibody captured by Human Fab Binder, Tim-3 SAG as analyte, 1:1 Langmuir with mass transport
T3 construct: Single arm format: the second (Fc only) chain is not described; also called Tim-3 SAG; not shown: Fc part

[7] = target: T4, hTim-3-IgV-FLAG (human, UniProt Q8TDQ0 22-130, density indicating glycosylation at Asn99); test: SPR, Biacore T200, Fab captured, hTim-3-IgV-FLAG as analyte, HBS-EP, 25 C, 1:1 binding
T4 construct: Purified from 293HEK supernatant with anti-FLAG resin; also called hTim-3-FLAG; not shown: FLAG tag

B1: Antibody A (antibody, human IgG1, kappa, V domains shown)
VH: EVQLLESGGGLVQPGGSLRLSCAASGFTFSSYYMSWVRQAPGKGLEWVSAISGSGGSTYYADSVKGRFTISRDNSKNTLYLQMNSLRAEDTAVYYCARYARTAFDLWGQGTLVTVSS
VL: DIVMTQSPSSLSASVGDGVTITCQASQDIYNYLNWYQQKPGKAPKLLIYAASSLQSGVPSRFSGSGSGTDFTLTISSLQPEDFATYYCQQANSFPPTFGQGTKLEIKR
notes: also called anti-human Tim-3; Antiboby A
[1]
  IC50: 0.32 nM
[2]
  IC50: 5.6 nM
[3]
  EC50 (nM), IL-2 production of hTim-3 DO11.10 cells with A20 cells and OVA peptide: 3.71 nM
[4]
  EC50: 0.09 nM
[5]
  EC50: 0.0207 nM
[6]
  Kd: 0.398 nM
  koff: 0.000927 s⁻¹
  kon: 2.33e+06 M⁻¹ s⁻¹

B2: Antibody B (antibody, human IgG1, kappa, V domains shown)
VH: EVQLLESGGGLVQPGGSLRLSCAASGFSFSSFYFSWVRQAPGKGLEWVSAISGNGRSTYYADSVKGRFTISRDNSKNTLYLQMNSLRAEDTAVYYCARYYNTGFDLWGQGTLVTVSS
VL: DIVMTQSPSSLSASVGDGVTITCQASEAIYGYLNWYQQKPGKAPKLLIYAASSLPIGVPSRFSGSGSGTDFTLTISSLQPEDFATYYCQQAYGFPPTFGQGTKLEIKR
[3]
  EC50 (nM), IL-2 production of hTim-3 DO11.10 cells with A20 cells and OVA peptide: 6.08 nM
[6]
  Kd: 0.158 nM
  koff: 0.000106 s⁻¹
  kon: 675000 M⁻¹ s⁻¹

B3: Antibody A-Fab (Fab, V domains shown)
VH: EVQLLESGGGLVQPGGSLRLSCAASGFTFSSYYMSWVRQAPGKGLEWVSAISGSGGSTYYADSVKGRFTISRDNSKNTLYLQMNSLRAEDTAVYYCARYARTAFDLWGQGTLVTVSS
VL: DIVMTQSPSSLSASVGDGVTITCQASQDIYNYLNWYQQKPGKAPKLLIYAASSLQSGVPSRFSGSGSGTDFTLTISSLQPEDFATYYCQQANSFPPTFGQGTKLEIKR
notes: Made by clipping Antibody A with immobilized papain; also called Fab for Antibody A
[7]
  Kd: 7.92 nM
  koff: 0.00286 s⁻¹
  kon: 362000 M⁻¹ s⁻¹

B4: Antibody C (antibody, human IgG1, kappa, V domains shown)
VH: EVQLLESGGGLVQPGGSLRLSCAASGFTFSSYYMSWVRQAPGKGLEWVSAISGNGKSTYYADSVKGRFTISRDNSKNTLYLQMNSLRAEDTAVYYCARYYNTGFDLWGQGTLVTVSS
VL: DIVMTQSPSSLSASVGDGVTITCQASQDIYNYLNWYQQKPGKAPKLLIYYASSIVSGVPSRFSGSGSGTDFTLTISSLQPEDFATYYCQQANSFPPTFGQGTKLEIKR
[3]
  EC50 (nM), IL-2 production of hTim-3 DO11.10 cells with A20 cells and OVA peptide: 3.35 nM
[6]
  Kd: 0.173 nM
  koff: 0.000138 s⁻¹
  kon: 797000 M⁻¹ s⁻¹
